The record followed here is the Immune Epitope Database (IEDB).

Some results are limits rather than exact numbers.

Some targets named below: HLA-A*03:01; HLA-A*11:01; HLA-A*31:01; HLA-A*33:01; HLA-A*68:01.
Assay in all cases: IEDB peptide-MHC binding, purified MHC/competitive/radioactivity; filed as Kd, often an IC50 or EC50 that approximates it; ≥ and ≤ were set here for values at or beyond the usual limits of such assays
Setting [1] is: source organism: Mammarenavirus machupoense.
[2] abbreviates: source organism: Mammarenavirus guanaritoense.
Where [3] appears, read: source organism: Mammarenavirus lassaense.
The mark [4] stands for this setting: source organism: Dengue virus 3 Martinique/1243/1999.
The mark [5] stands for this setting: source organism: Triticum aestivum.
[6] abbreviates: source organism: Mopeia Lassa virus reassortant 29.
[7] abbreviates: source organism: Lymphocytic choriomeningitis virus (strain Armstrong).
The mark [8] stands for this setting: source organism: Vaccinia virus WR.
[9] abbreviates: source organism: Dengue virus 1 Brazil/97-11/1997.
The mark [10] stands for this setting: source organism: Dengue virus 2 Jamaica/1409/1983.
Where [11] appears, read: source organism: SARS coronavirus Tor2.
The mark [12] stands for this setting: source organism: Dengue virus 4 Philippines/H241/1956.

The Kd is the constant that tells how readily two partners part at equilibrium. For the sequence LNNSFYYMK, the dissociation constant (Kd) in the experiment with HLA-A*03:01 (setting [1]) was 7240 nM; with HLA-A*11:01 (setting [1]) it was 619 nM; in the experiment with HLA-A*31:01 (setting [1]), 26.4 nM; with HLA-A*33:01 (setting [1]), no less than 77700 nM; in the experiment with HLA-A*68:01 (setting [1]), 67.7 nM.

For IFFTTSLFLH, the Kd with HLA-A*03:01 (setting [2]) worked out at 1030 nM; in the experiment with HLA-A*11:01 (setting [2]), 17600 nM; with HLA-A*31:01 (setting [2]), 1360 nM; with HLA-A*33:01 (setting [2]), 1040 nM; in the experiment with HLA-A*68:01 (setting [2]), 3490 nM.

Consider TLGSFTWFPH, for which the Kd was 428 nM in the experiment with HLA-A*03:01 (setting [3]); 4990 nM in the experiment with HLA-A*11:01 (setting [3]); 782 nM with HLA-A*31:01 (setting [3]); 13400 nM with HLA-A*33:01 (setting [3]); no less than 25700 nM with HLA-A*68:01 (setting [3]).

MLVTPSMTMR: the Kd with HLA-A*31:01 (setting [4]) is 111 nM; in the experiment with HLA-A*68:01 (setting [4]), 54.7 nM.

For QLLQELCCQH, the Kd with HLA-A*03:01 (setting [5]) is no less than 27100 nM; in the experiment with HLA-A*11:01 (setting [5]), no less than 69800 nM; with HLA-A*31:01 (setting [5]), no less than 70000 nM; in the experiment with HLA-A*33:01 (setting [5]) it was no less than 70000 nM; in the experiment with HLA-A*68:01 (setting [5]) it was 17400 nM.

Regarding LTKFVAAALH, the Kd is 16000 nM in the experiment with HLA-A*03:01 (setting [6]); 5660 nM with HLA-A*11:01 (setting [6]); 694 nM with HLA-A*31:01 (setting [6]); 5610 nM in the experiment with HLA-A*33:01 (setting [6]); 164 nM in the experiment with HLA-A*68:01 (setting [6]).

Take LTKFVSAALH: the Kd was found to be 864 nM with HLA-A*31:01 (setting [7]), 3760 nM with HLA-A*33:01 (setting [7]) and 221 nM in the experiment with HLA-A*68:01 (setting [7]).

On to KFGNSINVK, for which the Kd in the experiment with HLA-A*03:01 (setting [8]) is 7140 nM; in the experiment with HLA-A*11:01 (setting [8]), 6460 nM; with HLA-A*31:01 (setting [8]) it was 618 nM; with HLA-A*33:01 (setting [8]) it was no less than 77700 nM; with HLA-A*68:01 (setting [8]), no less than 46400 nM.

As for STDNAVYQCR, the Kd was determined as 5720 nM with HLA-A*03:01 (setting [8]); 35.4 nM in the experiment with HLA-A*11:01 (setting [8]); 427 nM in the experiment with HLA-A*31:01 (setting [8]); 2890 nM with HLA-A*33:01 (setting [8]); 81.3 nM in the experiment with HLA-A*68:01 (setting [8]).

For TYLALMATFK, the Kd in the experiment with HLA-A*33:01 (setting [9]) worked out at 11 nM.

For MLNIMNRRK, in the experiment with HLA-A*03:01 (setting [9]), the Kd came to 21 nM.

In the case of IANSNIIKNK, the Kd with HLA-A*03:01 (setting [8]) is 47.2 nM; in the experiment with HLA-A*11:01 (setting [8]), 39.5 nM; in the experiment with HLA-A*31:01 (setting [8]) it was 19900 nM; with HLA-A*33:01 (setting [8]) it was no less than 39300 nM; with HLA-A*68:01 (setting [8]) it was 212 nM.

As to YTIGTTHFQR, the Kd with HLA-A*31:01 (setting [10]) amounted to 44.3 nM; with HLA-A*33:01 (setting [10]), 6.12 nM; in the experiment with HLA-A*68:01 (setting [10]) it was 17.3 nM.

In the case of SVLCVKKFYK, the Kd came to 1.14 nM in the experiment with HLA-A*03:01 (setting [8]); 0.302 nM in the experiment with HLA-A*11:01 (setting [8]); 0.785 nM in the experiment with HLA-A*31:01 (setting [8]); 12.2 nM with HLA-A*33:01 (setting [8]); 1.01 nM in the experiment with HLA-A*68:01 (setting [8]).

As for SSPPIPMSR, the Kd in the experiment with HLA-A*03:01 (setting [8]) was determined as 7270 nM; with HLA-A*11:01 (setting [8]), 406 nM; in the experiment with HLA-A*31:01 (setting [8]), 10400 nM; with HLA-A*33:01 (setting [8]) it was 15500 nM; with HLA-A*68:01 (setting [8]), 764 nM.

Turning to SVNEYHMLK, the Kd with HLA-A*03:01 (setting [8]) is 6.1 nM; with HLA-A*11:01 (setting [8]) it was 2.23 nM; with HLA-A*31:01 (setting [8]), 6.92 nM; in the experiment with HLA-A*33:01 (setting [8]), 85.7 nM; with HLA-A*68:01 (setting [8]) it was 2.24 nM.

VTLADAGFMK: the Kd in the experiment with HLA-A*03:01 (setting [11]) was 33 nM; with HLA-A*11:01 (setting [11]), 3.92 nM; with HLA-A*31:01 (setting [11]), 1200 nM; with HLA-A*33:01 (setting [11]) it was 11700 nM; with HLA-A*68:01 (setting [11]) it was 135 nM.

Regarding SSFDYCGMDH, the Kd with HLA-A*03:01 (setting [1]) was 13800 nM; with HLA-A*11:01 (setting [1]), 6580 nM; with HLA-A*31:01 (setting [1]) it was 10600 nM; in the experiment with HLA-A*33:01 (setting [1]) it was no less than 48900 nM; with HLA-A*68:01 (setting [1]), 3400 nM.

For the sequence MSTYSDICSK, the dissociation constant (Kd) with HLA-A*03:01 (setting [8]) was no less than 70100 nM; with HLA-A*11:01 (setting [8]), no less than 69800 nM; with HLA-A*31:01 (setting [8]), no less than 70000 nM; in the experiment with HLA-A*33:01 (setting [8]), no less than 70000 nM; with HLA-A*68:01 (setting [8]), no less than 70200 nM.

For YLIHDNIMY, the Kd in the experiment with HLA-A*03:01 (setting [8]) is 10600 nM; with HLA-A*11:01 (setting [8]), 14900 nM; in the experiment with HLA-A*31:01 (setting [8]), no less than 77900 nM; in the experiment with HLA-A*33:01 (setting [8]), no less than 77700 nM; in the experiment with HLA-A*68:01 (setting [8]) it was no less than 26900 nM.

With KSISSMTIR, the dissociation constant (Kd) with HLA-A*03:01 (setting [8]) amounted to 1280 nM; with HLA-A*11:01 (setting [8]), 281 nM; in the experiment with HLA-A*31:01 (setting [8]), 3.64 nM; with HLA-A*33:01 (setting [8]), 7710 nM; in the experiment with HLA-A*68:01 (setting [8]) it was 832 nM.

As for VAALDGTFQR, the Kd with HLA-A*03:01 (setting [8]) is no less than 34100 nM; in the experiment with HLA-A*11:01 (setting [8]), 681 nM; with HLA-A*31:01 (setting [8]), 124 nM; with HLA-A*33:01 (setting [8]), 675 nM; with HLA-A*68:01 (setting [8]), 40.1 nM.

Consider YIVHSYLKNY, for which the Kd is no less than 70100 nM with HLA-A*03:01 (setting [8]); no less than 69800 nM with HLA-A*11:01 (setting [8]); no less than 70000 nM with HLA-A*31:01 (setting [8]); no less than 70000 nM in the experiment with HLA-A*33:01 (setting [8]); no less than 70200 nM with HLA-A*68:01 (setting [8]).

Consider AALSEGVYR, for which, in the experiment with HLA-A*31:01 (source organism: Dengue virus 4 Dominica/814669/1981), the Kd was found to be 169 nM.

TVWEVQGYK: the Kd in the experiment with HLA-A*03:01 (setting [11]) amounted to 2.91 nM; with HLA-A*11:01 (setting [11]), 0.757 nM; in the experiment with HLA-A*31:01 (setting [11]), 47.7 nM; with HLA-A*33:01 (setting [11]), 129 nM; with HLA-A*68:01 (setting [11]) it was 0.913 nM.

For NTTSKMLLNR, the values for the Kd in the experiment with HLA-A*33:01 (setting [12]) and in the experiment with HLA-A*68:01 (setting [12]) were 100 nM and 179 nM, respectively.
